We go through 3 molecules from publication PMC9352930 (2022).

The target in test [1] is iC3b (human). As to the kind of experiment: BLI. In general terms: In BLI a coated tip is dipped into the sample, and binding shifts an interference pattern.
Test [2] concerns the target T1, C3b (proteolytic fragment of complement component C3) (human, UniProt P01024 749-1663; P01024 749-1663). As to the kind of experiment: BLI.
Test [3] concerns the target native complement component C3 (human). As to the kind of experiment: SPR. In general terms: Surface plasmon resonance follows binding to a sensor surface in real time, without labels.
Test [4] has as its target T1, C3b (proteolytic fragment of complement …). As to the kind of experiment: SPR.
The target in another test is C3 methylamine (human, treated with methylamine). As to the kind of experiment: SPR.
Sequence of C3 methylamine (human, treated with methylamine) (chain, as listed by the source, chain 1 of 2): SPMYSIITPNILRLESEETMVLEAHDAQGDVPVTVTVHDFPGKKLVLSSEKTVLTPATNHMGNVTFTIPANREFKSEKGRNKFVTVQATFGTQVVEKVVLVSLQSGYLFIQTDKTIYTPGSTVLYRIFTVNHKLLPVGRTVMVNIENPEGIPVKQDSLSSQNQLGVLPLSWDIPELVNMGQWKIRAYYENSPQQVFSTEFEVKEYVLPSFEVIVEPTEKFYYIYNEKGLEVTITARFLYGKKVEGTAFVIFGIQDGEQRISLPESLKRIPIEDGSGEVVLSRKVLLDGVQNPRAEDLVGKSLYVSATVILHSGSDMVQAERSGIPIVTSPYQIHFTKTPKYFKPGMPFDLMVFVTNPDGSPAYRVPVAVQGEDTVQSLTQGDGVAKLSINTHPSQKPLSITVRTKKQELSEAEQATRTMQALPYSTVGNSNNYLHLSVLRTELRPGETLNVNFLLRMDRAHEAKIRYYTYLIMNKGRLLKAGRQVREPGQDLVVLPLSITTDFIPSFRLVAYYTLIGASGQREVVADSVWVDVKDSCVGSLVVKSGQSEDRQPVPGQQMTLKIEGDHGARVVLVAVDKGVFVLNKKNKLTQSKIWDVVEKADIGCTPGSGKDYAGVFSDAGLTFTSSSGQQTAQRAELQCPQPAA
Sequence of C3 methylamine (human, treated with methylamine) (chain, as listed by the source, chain 2 of 2): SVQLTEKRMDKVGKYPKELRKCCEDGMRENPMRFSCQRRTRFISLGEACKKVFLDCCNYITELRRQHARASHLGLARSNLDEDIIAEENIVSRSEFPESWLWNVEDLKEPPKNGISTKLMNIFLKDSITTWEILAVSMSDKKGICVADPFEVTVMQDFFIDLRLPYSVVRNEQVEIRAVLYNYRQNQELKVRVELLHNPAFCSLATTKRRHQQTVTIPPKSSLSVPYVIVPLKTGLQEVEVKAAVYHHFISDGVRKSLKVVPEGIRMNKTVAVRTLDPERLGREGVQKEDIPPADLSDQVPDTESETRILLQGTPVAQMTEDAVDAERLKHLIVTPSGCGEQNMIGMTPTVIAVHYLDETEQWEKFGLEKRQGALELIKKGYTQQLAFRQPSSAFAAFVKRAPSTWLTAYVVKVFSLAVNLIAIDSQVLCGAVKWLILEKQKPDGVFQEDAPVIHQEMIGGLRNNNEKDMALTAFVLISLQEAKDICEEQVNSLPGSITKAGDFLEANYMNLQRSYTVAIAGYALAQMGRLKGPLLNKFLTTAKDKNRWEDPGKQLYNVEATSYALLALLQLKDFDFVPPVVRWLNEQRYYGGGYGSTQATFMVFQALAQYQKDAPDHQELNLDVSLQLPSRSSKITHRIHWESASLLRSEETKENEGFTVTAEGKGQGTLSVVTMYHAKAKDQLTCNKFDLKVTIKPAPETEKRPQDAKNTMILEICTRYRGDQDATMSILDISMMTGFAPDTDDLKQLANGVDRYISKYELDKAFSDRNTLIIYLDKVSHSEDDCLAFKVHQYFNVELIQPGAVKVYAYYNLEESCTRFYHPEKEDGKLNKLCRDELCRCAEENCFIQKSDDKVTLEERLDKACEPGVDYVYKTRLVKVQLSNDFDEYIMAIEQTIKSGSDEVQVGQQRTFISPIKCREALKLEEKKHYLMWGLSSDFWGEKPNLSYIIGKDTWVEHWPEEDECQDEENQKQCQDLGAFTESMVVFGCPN
The target of test [5] is iC3b (human). As to the kind of experiment: BLI. The source holds these as a separate data set.
The target in test [6] is T1, C3b (proteolytic fragment of complement …). As to the kind of experiment: BLI. This is another data set of the same source.

T1 sequence (P01024 23-667, chain 1 of 2): as the sequence (chain, as listed by the source, chain 1 of 2) above
T1 sequence (P01024 749-1663, chain 2 of 2): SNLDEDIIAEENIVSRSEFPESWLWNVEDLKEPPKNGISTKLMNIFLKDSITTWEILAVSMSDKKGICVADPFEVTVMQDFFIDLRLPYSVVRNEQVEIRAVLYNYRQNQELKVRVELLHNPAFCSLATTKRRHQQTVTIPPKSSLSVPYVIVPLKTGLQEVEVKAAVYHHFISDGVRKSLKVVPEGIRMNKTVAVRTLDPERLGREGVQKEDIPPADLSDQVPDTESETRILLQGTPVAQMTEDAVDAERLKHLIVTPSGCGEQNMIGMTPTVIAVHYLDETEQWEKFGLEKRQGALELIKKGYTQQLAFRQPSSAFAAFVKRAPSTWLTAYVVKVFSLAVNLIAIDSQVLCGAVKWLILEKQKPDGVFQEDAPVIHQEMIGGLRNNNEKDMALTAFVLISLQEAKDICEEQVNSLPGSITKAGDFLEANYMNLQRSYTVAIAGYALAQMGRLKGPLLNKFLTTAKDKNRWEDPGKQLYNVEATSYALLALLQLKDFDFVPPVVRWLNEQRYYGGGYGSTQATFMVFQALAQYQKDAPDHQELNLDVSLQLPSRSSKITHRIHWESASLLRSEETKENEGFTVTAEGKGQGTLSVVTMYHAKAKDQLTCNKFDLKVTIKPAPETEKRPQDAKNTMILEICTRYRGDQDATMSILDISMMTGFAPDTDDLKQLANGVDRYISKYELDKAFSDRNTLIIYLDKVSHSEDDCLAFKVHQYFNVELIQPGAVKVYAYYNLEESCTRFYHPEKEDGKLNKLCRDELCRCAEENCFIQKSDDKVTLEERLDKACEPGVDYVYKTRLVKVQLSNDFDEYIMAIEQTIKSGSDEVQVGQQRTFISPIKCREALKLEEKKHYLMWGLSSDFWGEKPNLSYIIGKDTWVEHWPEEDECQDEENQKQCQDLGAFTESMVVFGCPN
Sequence of iC3b (human) (chain, as listed by the source, chain 1 of 3): as the sequence (chain, as listed by the source, chain 1 of 2) above
Sequence of iC3b (human) (chain, as listed by the source, chain 2 of 3): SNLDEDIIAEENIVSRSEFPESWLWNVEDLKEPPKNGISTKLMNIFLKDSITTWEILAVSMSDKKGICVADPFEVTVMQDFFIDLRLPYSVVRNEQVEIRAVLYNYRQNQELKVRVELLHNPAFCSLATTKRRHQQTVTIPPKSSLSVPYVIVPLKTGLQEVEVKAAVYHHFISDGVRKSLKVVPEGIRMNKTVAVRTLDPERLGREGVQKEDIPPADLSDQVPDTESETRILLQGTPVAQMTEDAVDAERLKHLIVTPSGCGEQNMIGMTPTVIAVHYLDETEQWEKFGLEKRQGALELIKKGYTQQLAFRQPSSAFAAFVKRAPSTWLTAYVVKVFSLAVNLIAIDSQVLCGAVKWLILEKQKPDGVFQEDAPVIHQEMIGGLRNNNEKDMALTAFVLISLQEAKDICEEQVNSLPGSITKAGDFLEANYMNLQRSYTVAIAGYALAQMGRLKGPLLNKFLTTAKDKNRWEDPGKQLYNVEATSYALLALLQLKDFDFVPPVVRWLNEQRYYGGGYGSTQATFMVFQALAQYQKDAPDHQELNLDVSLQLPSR
Sequence of iC3b (human) (chain, as listed by the source, chain 3 of 3): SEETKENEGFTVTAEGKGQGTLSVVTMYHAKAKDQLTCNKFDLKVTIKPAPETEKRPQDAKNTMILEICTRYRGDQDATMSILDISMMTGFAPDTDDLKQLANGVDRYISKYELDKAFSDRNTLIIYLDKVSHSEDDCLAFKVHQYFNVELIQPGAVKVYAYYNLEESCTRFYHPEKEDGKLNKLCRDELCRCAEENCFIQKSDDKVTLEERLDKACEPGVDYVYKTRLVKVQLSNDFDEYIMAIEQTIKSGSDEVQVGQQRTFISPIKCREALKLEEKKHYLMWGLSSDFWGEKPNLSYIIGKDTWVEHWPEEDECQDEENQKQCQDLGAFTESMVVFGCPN
Sequence of native complement component C3 (human) (chain, as listed by the source, chain 1 of 2): as the sequence (chain, as listed by the source, chain 1 of 2) above
Sequence of native complement component C3 (human) (chain, as listed by the source, chain 2 of 2): as the sequence (chain, as listed by the source, chain 2 of 2) above

B1: EWEnH fusion protein (EWE fused to FH CCP2-4) (other)
chain: EWEQVQLVETGGGLVQAGGSLRLSCAASGSIFSINAMGWFRQAPGKEREFVATINRSGGRTYYADSVKGRFTISRDNGKNMVYLQMHSLKPEDTAIYYCAAGTGWSPQTDNEYNYWGQGTQVTVSSRPCGHPGDTPFGTFTLTGGNVFEYGVKAVYTCNEGYQLLGEINYRECDTDGWTNDIPICEVVKCLPVTAPENGKIVSSAMEPDREYHFGQAVRFVCNSGYKIEGDEEMHCSDDGFWSKEKPKCVEISCKSPDVINGSPISQKIIYKENERFQYKCNMGYEYSERGDAVCTESGWRPLPSCEE
On to B1, for which the Kd (as a rule, the free concentration of one partner at which half of the binding sites on the other are occupied at equilibrium, for simple one-to-one binding) turned out to be 8.9 nM in the test with iC3b [1] and 7.1 nM in test [2].

B2: avi-tagged, biotinylated EWE nanobody (VHH)
VHH: QVQLVETGGGLVQAGGSLRLSCAASGSIFSINAMGWFRQAPGKEREFVATINRSGGRTYYADSVKGRFTISRDNGKNMVYLQMHSLKPEDTAIYYCAAGTGWSPQTDNEYNYWGQGTQVTVSS
modifications: biotin
On to B2, for which the results for the koff (in test [3]; in test [4]; with C3 methylamine) were 0.000105 s⁻¹, 8.6e-05 s⁻¹ and 7.6e-05 s⁻¹, respectively.

B3: EWE-hC3Nb1 nanobody, bacterially expressed (VHH)
VHH: B2 VHH
Regarding B3, the koff (usually the first-order rate constant of dissociation) with iC3b [5] was 0.00026 s⁻¹; in test [6], 0.00037 s⁻¹.
